Where no end group is shown, it is not given here.
Molecular target: soluble I-A^b-3R, mouse MHC-II protein (recombinant I-A^b) (mouse)
Assay: fluorescence polarisation; competition: 100 nM I-A^b-3R (3R cut off by thrombin, 1 U/ug), 25 nM Alexa488-labeled CLIP probe peptide, test peptide from 100 uM in 5-fold dilutions, 0.5 uM HLA-DM, read after 72 h at 37 C; 100 mM sodium citrate, 50 mM NaCl, 0.1% octyl glucoside, 5 mM EDTA, 1 mM DTT; three independent experiments, mean and SD

An IC50 of 2420 nM was found for AQRAGYKAAIVHNVDS [… (E3 ubiquitin-protein ligase RNF13 peptide)] in this work.

An IC50 of 74100 nM was found for YSMGMHTYQVG [… (Cathepsin S peptide)] in this work.

An IC50 of 54400 nM was found for LNLPTGIPIVYEL (not fully specified) [… (Phosphoglycerate mutase 2 peptide)] in this work.

An IC50 of 250 nM was found for IRRYGVSQPDAVAAWK (not fully specified) [… (Alpha-N-acetylglucosaminidase peptide)] in this work.

An IC50 of 152 nM was found for QVLSWSSPVGSRTLA [… (Protein Siglecg peptide)] in this work.

An IC50 of 57500 nM was found for AGTGVDNVDLEAATR (not fully specified) [… (D-3-phosphoglycerate dehydrogenase peptide)] in this work.

An IC50 of 445 nM was found for NDWTVDHPQTLFAWEG [… (B-cell receptor CD22 peptide)] in this work.

From paper PMC8116589, “Distinguishing Signal From Noise in Immunopeptidome Studies of Limiting-Abundance Biological Samples: Peptides Presented by I-A^b in C57BL/6 Mouse Thymus” (Frontiers in Immunology, 2021)
